Results taken from patent US20090304686A1, “INTERFERING IN ACTIVATION OF AN IMMUNE CELL BY INFLUENCING INTERACTION OF LAIR AND COLLAGEN” (UNIVERSOTAIR MEDISCH CENTRUM UTRECHT, priority 2006, published 2009).

What was measured:
[1] = target: collagen I (purified, Sigma; acid-soluble human collagen type I in BIAcore) (human) (UniProt P02452); assay: SPR (BIAcore), equilibrium binding to immobilised collagen I
[2] = target: collagen I (purified, Sigma; acid-soluble human collagen type I in BIAcore) (human) (UniProt P02452); assay: SPR (BIAcore), biphasic dissociation from collagen I, component Koff1
[3] = target: collagen I (purified, Sigma; acid-soluble human collagen type I in BIAcore) (human) (UniProt P02452); assay: SPR (BIAcore), biphasic dissociation from collagen I, component Koff2

Kd [1]: 14.2 nM
koff [2]: 0.000142 s⁻¹
koff [3]: 0.00187 s⁻¹
B1: hLAIR-1-IgG (extracellular domain of human LAIR-1 fused to the Fc region of human IgG1) (Fc fusion, UniProt Q6GTX8 22-165, looked up, not shown: a dimerising Fc or GST)
chain: QEEDLPRPSISAEPGTVIPLGSHVTFVCRGPVGVQTFRLERDSRSTYNDTEDVSQASPSESEARFRIDSVREGNAGLYRCIYYKPPKWSEQSDYLELLVKESSGGPDSPDTEPGSSAGPTQRPSDNSHNEHAPASQGLKAEHLY
